These results are taken from patent US12227551B2, “Membrane bound IL12 compositions and methods for tunable regulation” (Obsidian Therapeutics, Inc., priority 2018, dated 2025).

One assay has as its system Nalm-6 cells. Kind of assay: 48 hour cytotoxicity assay, T cells co-cultured with Nalm-6 NucRed cells, Incucyte (Example 7; Table 21). Type of assay: cell-based. As for the experimental part: For cytotoxicity assays, T cells were thawed and co-cultured with Nalm-6 cells (stably expressing NucRed®) at different T cells to Nalm-6 cell culture ratios. Target cell viability was determined by measuring cellular fluorescence over time using an Incucyte assay and the results are shown in Table 21.

Assay [1] concerns phospho-STAT4 in GFP+ T cells. In words: Transactivation: phospho-STAT4 in GFP+ CAR-negative T cells after 1 hour co-culture with CAR-mbIL12 T cells, flow cytometry (Example 6; Table 20). Type of assay: cell-based, human. As for the experimental part: Membrane bound IL12 (mbIL12) was expressed in tandem with a CD19-CAR and tested in primary human T cells. On day 0, primary human T cells were stimulated with Dynabeads (T-expander CD3/CD28) at a 3:1 bead:cell ratio in media containing 10% fetal bovine serum (FBS). The next day, lentivirus with mbIL12 in tandem with a CD19-CAR construct was added in the presence of reduced serum (5% FBS). After 7 days of T cell expansion, increasing numbers of CAR+ T cells were cocultured with 10,000 GFP+, CAR-negative T cells. At the end of 1 hour of co-culture, the phospho-STAT4 levels within the GFP+ T cells were quantitated by flow cytometry using reagents and methods from BD. To determine the relative amount of IL12 activity that had accumulated in the T cell supernatants during the hour-long co-culture, cell supernatants from the co-culture were transferred to a new plate of GFP+ T cells and incubated for 1 hour. Phospho-STAT4 levels were measured in the GFP+ T cells incubated with the supernatants from the original co-culture. The transactivation ([…] geometric mean fluorescence (MFI) on GFP+ cells in co-culture) and the bystander effect (pSTAT4 geometric MFI on GFP+ T cells in 1 hour supernatants) for a CAR-IL12+:GFP+ ratio of 64 are shown in Table 20.
The transactivation (pSTAT4 geometric mean fluorescence (MFI) on GFP+ cells in co-culture) and the bystander effect (pSTAT4 geometric MFI on GFP+ T cells in 1 hour supernatants) for the constructs at different ratios are summarized below. For OT-001407, when (a) the CAR-IL12+:GFP+ ratio was 32, the transactivation was 1711 and the bystander effect was −1680, (b) the CAR-IL12+:GFP+ ratio was 16, the transactivation was 1768 and the bystander effect was −1632, (c) the CAR-IL12+:GFP+ ratio was 8, the transactivation was 1433 and the bystander effect was −1603, (d) the CAR-IL12+:GFP+ ratio was 4, the transactivation was 1195 and the bystander effect was −1860, and (e) the CAR-IL12+:GFP+ ratio was 2, the transactivation was 1101 and the bystander effect was −1800. For OT-001356, when (a) the CAR-IL12+:GFP+ ratio was 73.9, the transactivation was 6452 and the bystander effect was −2617, (b) the CAR-IL12+:GFP+ ratio was 37, the transactivation was 6935 and the bystander effect was −1404, (c) the CAR-IL12+:GFP+ ratio was 18.5, the transactivation was 6417 and the bystander effect was −226, (d) the CAR-IL12+:GFP+ ratio was 9.2, the transactivation was 5568 and the bystander effect was −86, (e) the CAR-IL12+:GFP+ ratio was 4.6, the transactivation was 4374 and the bystander effect was −518, and (f) the CAR-IL12+:GFP+ ratio was 2.3, the transactivation was 2839 and the bystander effect was −1093. For OT-001895, when (a) the CAR-IL12+:GFP+ ratio was 34.1, the transactivation was 7699 and the bystander effect was −3724, (b) the CAR-IL12+:GFP+ ratio was 17.1, the transactivation was 7718 and the bystander effect was −2996, (c) the CAR-IL12+:GFP+ ratio was 8.5, the transactivation was 8200 and the bystander effect was −1178, (d) the CAR-IL12+:GFP+ ratio was 4.3, the transactivation was 7172 and the bystander effect was −277, (e) the CAR-IL12+:GFP+ ratio was 2.1, the transactivation was 6095 and the bystander effect was −238, and (f) the CAR-IL12+:GFP+ ratio was 1.1, the transactivation was 4498 and the bystander effect was −136. For OT-002011, when (a) the CAR-IL12+:GFP+ ratio was 75.8, the transactivation was 8086 and the bystander effect was −3531, (b) the CAR-IL12+:GFP+ ratio was 37.9, the transactivation was 8031 and the bystander effect was −2884, (c) the CAR-IL12+:GFP+ ratio was 18.9, the transactivation was 8324 and the bystander effect was −1376, (d) the CAR-IL12+:GFP+ ratio was 9.5, the transactivation was 7765 and the bystander effect was −1133, (e) the CAR-IL12+:GFP+ ratio was 4.7, the transactivation was 6682 and the bystander effect was −566, and (f) the CAR-IL12+:GFP+ ratio was 2.4, the transactivation was 5190 and the bystander effect was −642. […]
(In general: Flow cytometry measures light scatter and fluorescence of single cells or particles in a stream.)

Another assay concerns T cells. In words: Percentage of CAR positive cells after 10 days expansion (Example 7). The conditions noted are these: T cells expanded for 10 days. Type of assay: cell-based.
Assay [2] deals with CAR+ T cells and GFP+ T cells. Kind of assay: CAR-T and GFP+ T cell expansion in peripheral blood by flow cytometry (Example 10; Table 37). In kind it is in vivo, NSG mice. Also noted: unit not given here. The settings on record: day 14 post T cell transfer, 1 million CAR+ T cells. Here is the method: Next, holding total CAR+ T cell dose constant at 1 million cells per animal, transduced T cells were intravenously infused into mice on day 7. Tumors were monitored in mice using BLI and the mean of the Total Flux (photons/second) was calculated for each group as an indicator of tumor burden (Table 34). In order to track the trans effect of IL12 expressing CART cells on that lack expression of IL12, 10 million GFP+ T cells (negative for IL12) were co-infused with the IL12-expressing CAR+ T cells, and peripheral blood draws taken over time to evaluate the effect of IL12 on phenotypic changes in GFP+ T cells by flow cytometry analysis.
Thus, anti-tumor efficacy (Table 34) appears to correlate with CAR-T cell expansion.

B1: OT-001356: CD19 CAR; stop; IRES; secreted IL12 (p40 23-328; (G4S)3; p35 57-253); nucleic acid SEQ ID NO: 482 (protein)
chain: IWELKKDVYVVELDWYPDAPGEMVVLTCDTPEEDGITWTLDQSSEVLGSGKTLTIQVKEFGDAGQYTCHKGGEVLSHSLLLLHKKEDGIWSTDILKDQKEPKNKTFLRCEAKNYSGRFTCWWLTTISTDLTFSVKSSRGSSDPQGVTCGAATLSAERVRGDNKEYEYSVECQEDSACPAAEESLPIEVMVDAVHKLKYENYTSSFFIRDIIKPDPPKNLQLKPLKNSRQVEVSWEYPDTWSTPHSYFSLTFCVQVQGKSKREKKDRVFTDKTSATVICRKNASISVRAQDRYYSSSWSEWASVPCSGGGGSGGGGSGGGGSRNLPVATPDPGMFPCLHHSQNLLRAVSNMLQKARQTLEFYPCTSEEIDHEDITKDKTSTVEACLPLELTKNESCLNSRETSFITNGSCLASRKTSFMMALCLSSIYEDLKMYQVEFKTMNAKLLMDPKRQIFLDQNMLAVIDELMQALNFNSETVPQKSSLEEPDFYKTKIKLCILLHAFRIRAVTIDRVMSYLNASGS
As to B1, the “Average Total Nalm6-NucRed Area after 48 hour at E:T ratio of 3:1” value with Nalm-6 cells (E:T 3:1, 48 hour) is 33,079. In the assay with Nalm-6 cells (E:T 10:1, 48 hour), the “Average Total Nalm6-NucRed Area after 48 hour at E:T ratio of 10:1” value is listed as 32,236. Further, the “transactivation (pSTAT4 geometric MFI on GFP+ cells in co-culture)” value is given as 2839 in assay [1] (CAR-IL12+:GFP+ ratio 2.3); 4374 in assay [1] (CAR-IL12+:GFP+ ratio 4.6); 5568 in assay [1] (CAR-IL12+:GFP+ ratio 9.2); 6417 in assay [1] (CAR-IL12+:GFP+ ratio 18.5); 6935 in assay [1] (CAR-IL12+:GFP+ ratio 37); 6452 in assay [1] (CAR-IL12+:GFP+ ratio 73.9). Further, the Transactivation in assay [1] (CAR-IL12+:GFP+ ratio of 64, pSTAT4 geometric MFI on GFP+ cells, 1 hour co-culture) amounted to 6452. In addition, the “Percentage of CAR positive cells” value in the assay with T cells turned out to be 45.3%. Also, the “Cis Effect: Numbers of CAR+ Cells on Day 14” value in assay [2] was found to be 1777. In addition, the “Trans Effect: Numbers of GFP+ Cells on Day 14” value in assay [2] is listed as 99.
